How the values were obtained:
TATA box DNA sequences = assay: Gel shift assay with TATA box sequences; type: binding; conditions: GST-purified protein; cMyc or CMV promoter sequences
From the text: FIGS. 11A-H. JP2NT is a TATA-box binding protein enriched at transcription start site (TSS) and interacts with basic transcription machinery. […] C) 293T cells were transfected with HA-tagged JP2NT, followed by crosslinking-reversal immunoprecipitation with anti-HA and immunoblotting with anti-polymerase II (Rpb1) or anti-TATA box binding protein (TBP). D-H) JP2NT binds to TATA box DNA sequences in vitro. D-E) Gel shift assays of GST-purified JP2NT binding to WT (D). or mutated TATA box-containing sequences (E) derived from the cMyc promoter. F) Summary of the results of gel shift assays with various of TATA box variants or mutants. Mutation of the core TATA sequences abolished the interaction with GST-JP2NT. G) Deletion of the ARR, but not the N-terminal MORN domains, eliminated JP2NT binding to the TATA box sequence. H) The peptide JP2^331-405 containing the ARR specifically binds to WT TATA box sequence.
TBP specifically binds to TATA boxes, eukaryotic core cis-regulatory elements localized at transcription start site. […] This interaction was abrogated by mutation of the TATA box elements (FIGS. 11E&G and 17B). It was concluded that JP2NT is a DNA binding protein, binding to consensus TATA box represented as TATAA(A/T) or TATATA (FIG. 11F).

MEF2C = target: T1, MEF2C (Homo sapiens, UniProt Q06413); assay: Co-IP of Myc-tagged MEF2C and HA-tagged JP2NT in 293 cells; type: binding
T1 construct: expressed in transfected cells; host or cells: 293 cells
T1 sequence (Q06413 whole entry, species assumed): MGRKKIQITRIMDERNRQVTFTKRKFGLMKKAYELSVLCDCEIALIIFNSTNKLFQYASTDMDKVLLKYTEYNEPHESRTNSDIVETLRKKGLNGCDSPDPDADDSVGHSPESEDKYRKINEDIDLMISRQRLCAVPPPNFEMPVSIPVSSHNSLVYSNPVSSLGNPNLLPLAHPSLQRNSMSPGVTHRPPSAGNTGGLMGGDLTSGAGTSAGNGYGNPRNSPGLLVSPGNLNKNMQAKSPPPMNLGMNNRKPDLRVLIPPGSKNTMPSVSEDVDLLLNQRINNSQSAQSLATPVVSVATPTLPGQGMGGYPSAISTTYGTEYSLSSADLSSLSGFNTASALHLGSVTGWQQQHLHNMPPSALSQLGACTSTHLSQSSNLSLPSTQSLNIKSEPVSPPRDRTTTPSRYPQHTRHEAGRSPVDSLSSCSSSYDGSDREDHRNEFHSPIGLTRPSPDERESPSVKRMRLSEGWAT
From the text: (§1) The MEF2 family, master regulators of hypertrophic genes in cardiomyocytes, binds to the A/T enriched consensus sequence (C/TTA(A/T)4TA G/A), which shares the same core sequence with TATA box. Thus, it was hypothesized that JP2NT directly interacts with MEF2 binding sites.

[1] = system: MEF2C Response Element (MRE) from the desmin enhancer; assay: Gel shift assay with MEF2 response element; type: binding; conditions: purified protein
From the text: FIGS. 12A-E. JP2NT represses MEF2-mediated transcription by competing for the MEF2 Response Element (MRE). A) Enrichment of MEF2 binding motifs in ChIP-seq dataset. B) Gel shift assay of JP2NT binding to a desmin promoter-derived DNA sequence containing a WT or mutated MRE in vitro. C) Co-immunoprecipitation of HA-tagged JP2NT binding to MEF2C or Histone H3. D) & E) MEF2 activity assays in 293T cells co-transfected with luciferase under the control of an MRE, MEF2C and WT JP2NT (D) or a mutant lacking the ARR (E, JP2NT^ΔARR). n≥3 independent batches of cells; in each batch of experiments, 3 replicates were performed for each transfection; **p<0.01 vs. Ad-Empty.
as §1

chromatin = assay: Biochemical fractionation for chromatin association; type: cell-based; conditions: MNASE digestion, Western blot
From the text: FIGS. 10A-D. JP2NT contains a NLS and a chromatin/DNA-binding domain. A-B) A conserved NLS in JP2 N-terminus is essential for nuclear accumulation of JP2NT. a-c, Subcellular localization of eGFP and eGFP-fused JP2 and eGFP-JP2NT in 293T cells. Full length JP2 localizes on both plasma membrane and ER network (b). […] C-D) JP2NT associates with chromatin. a, Schematic of the subcellular fractionation approach (adapted from Wisoka et al 2001). b, Subnuclear distribution of JP2NT and fragments/mutants. JP2NT is present in both soluble nuclear (S3) and chromatin fractions (S4). Deletion of the MORN domains (JP2NT JP2NT^ΔMORNs) had no effect on subnuclear distribution of JP2NT. However, the amount of chromatin-associated JP2NT was decreased by deletion of the bNLS alone (JP2NT^ΔMORNs/ΔbNLS), deletion of the ARR alone (JP2 JP2NT^ΔMORNs/ΔARR), or deletion of both the bNLS and ARR (JP2^ΔMORNs/ΔbNLS/ΔARR and JP2NT^ΔbNLS/ΔARR). Histone H3: chromatin marker.
Ultracentrifuge based protein fractionation was performed following the protocol described previously (van Berlo et al., 2013). For some experiments, the soluble nuclear fraction (Nu-S) was separately extracted using nuclear extraction buffer (NEB) from the Tissue subcellular fractionation kit of Thermo Scientific, and the remaining insoluble fraction was subjected to MNASE digestion for chromatin fraction extraction. […]

[2] = system: cultured adult murine cardiomyocytes; assay: RT-qPCR in cultured cardiomyocytes; type: cell-based, mouse; conditions: compared with Ad-Empty infected cells
Procedure: RNA of cultured cardiomyocytes was extracted using RNAeasy (Qiagene). Myocardium RNA was extracted using Trizol. Total RNA was treated with DNASE-I to eliminate genomic DNA and then cleaned using RNA cleanup Kit (Qiagene).
Superscript II were used for Reverse Transcription of mRNA. A QUANT STUDIO 3 real-time PCR machine was used to run qPCR. The primers used in RT-PCR were: […]

B1: JP2NT: shorter form of Junctophilin-2 including the first 565 amino acids of N-terminus of JP2 (protein, UniProt Q9BR39 1-565, looked up, fragment)
chain: MSGGRFDFDDGGAYCGGWEGGKAHGHGLCTGPKGQGEYSGSWNFGFEVAGVYTWPSGNTFEGYWSQGKRHGLGIETKGRWLYKGEWTHGFKGRYGIRQSSSSGAKYEGTWNNGLQDGYGTETYADGGTYQGQFTNGMRHGYGVRQSVPYGMAVVVRSPLRTSLSSLRSEHSNGTVAPDSPASPASDGPALPSPAIPRGGFALSLLANAEAAARAPKGGGLFQRGALLGKLRRAESRTSVGSQRSRVSFLKSDLSSGASDAASTASLGEAAEGADEAAPFEADIDATTTETYMGEWKNDKRSGFGVSERSSGLRYEGEWLDNLRHGYGCTTLPDGHREEGKYRHNVLVKDTKRRMLQLKSNKVRQKVEHSVEGAQRAAAIARQKAEIAASRTSHAKAKAEAAEQAALAANQESNIARTLARELAPDFYQPGPEYQKRRLLQEILENSESLLEPPDRGAGAAGLPQPPRESPQLHERETPRPEGGSPSPAGTPPQPKRPRPGVSKDGLLSPGAWNGEPSGEGSRSVTPSEGAGRRSPARPATERMAIEALQAPPAPSREPEVALYQG
modifications: GST or adenoviral forms
notes: shorter form of Junctophilin-2 including the first 565 amino acids of N-terminus of JP2
Q: With B1 as the molecule, how does the “binding to TATA box” value (TATA box DNA sequences) read?
A: The value was “directly binds”.

Q: What about the “interaction with MEF2C” value (MEF2C) of the same molecule?
A: The value was “interaction”.

Q: And the “interaction with MEF2C Response Element (MRE)” value [1]?
A: Its value is “interacts”.

Q: What about the “association with chromatin (insoluble nuclear fraction)” value (chromatin) of the same molecule?
A: The value was “detected in both soluble (S3) and chromatin containing insoluble (P4) nuclear fractions”.

Q: What about the “cardiac hypertrophy markers ANP and BNP (mRNA)” value [2] of the same molecule?
A: The value was “not altered”.

Q: What about the “mRNA levels of KLF4, KLF6, Myc, TGFβR1, NFKBIA, FOXO1, PI3KR1 et al” value [2] of the same molecule?
A: Its value is “significantly decreased”.

From US11351270B2, “Junctophilin-2 fragments and uses therefor” (University of Iowa Research Foundation, priority 2016, dated 2022)
